biological target: trkB

Point of comparison: “monoMPEG(20 kDa)-BDNF conjugate with site of attachment at the N-terminal alpha-amino group(s) (Example 2) (ligand)”, Activ. in vitro (MTS tetrazolium uptake by PC12/pcDneo-trkB#18 cells) 73%. Against it:
- monoMPEG(6 kDa)-BDNF conjugate with site of attachment at the N-terminal alpha-amino group(s) (Example 1) (ligand) — higher, 101%
- polyMPEG(6 kDa)-BDNF conjugates with MPEG aldehydes, six-fold molar excess (Example 4) (ligand) — lower, 25%
- r-metHuBDNF (ligand) — higher, 100%

Source: patent US5770577
